Source: patent US20240342215A1 (Regeneron, published 2024)

Columns and labels:
[1] = molecular target: human CD33 on tumor cells (A549.CD33; A549 electroporated with CD33 mRNA; HL-60, Kasumi1, OCI-AML3) (human, UniProt P20138 18-364); test: cell-based or functional assay
[2] = molecular target: MAGEA4 peptide presented by HLA-A2 on tumor cells (A549 transduced with MAGEA4 and HLA-A2; A549 pulsed with …); test: cell-based or functional assay
[3] = molecular target: T1, His labeled CD33-Fc reagent (Acros) (UniProt P20138 18-259); test: flow cytometry; CD33-Fc staining of transduced T cells, APC labeled streptavidin secondary
T1 construct: Secondary staining was with APC labeled streptavidin; not shown: Fc part and His label of the bought reagent
T1 sequence (P20138 18-259): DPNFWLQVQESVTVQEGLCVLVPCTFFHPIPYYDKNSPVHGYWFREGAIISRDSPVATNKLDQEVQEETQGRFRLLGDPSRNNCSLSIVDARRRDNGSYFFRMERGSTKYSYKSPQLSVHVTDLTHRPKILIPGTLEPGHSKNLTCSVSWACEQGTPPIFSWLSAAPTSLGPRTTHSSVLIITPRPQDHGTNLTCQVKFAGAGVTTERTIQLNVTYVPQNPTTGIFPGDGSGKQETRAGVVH

human CD33 on tumor cells (A549.CD33; A549 electroporated with CD33 mRNA; HL-60, Kasumi1, OCI-AML3), sequence (P20138 18-364): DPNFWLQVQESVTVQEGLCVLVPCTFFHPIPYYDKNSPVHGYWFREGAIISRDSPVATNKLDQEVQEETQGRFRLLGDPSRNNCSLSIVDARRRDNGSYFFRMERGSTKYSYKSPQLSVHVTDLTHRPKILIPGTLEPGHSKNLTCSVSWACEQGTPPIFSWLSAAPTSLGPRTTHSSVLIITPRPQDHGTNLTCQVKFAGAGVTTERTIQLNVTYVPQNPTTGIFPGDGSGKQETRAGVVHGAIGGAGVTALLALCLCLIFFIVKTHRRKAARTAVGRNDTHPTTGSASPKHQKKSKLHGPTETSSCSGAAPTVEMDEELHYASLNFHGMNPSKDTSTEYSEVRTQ

Binder	interferon gamma production [1]	interferon gamma production [2]	binding result [3]
VHH-TCR with a VHH added to the TRB separated by a marsupial mu linker (LEKT); CD33.VHH-mLNK-TRB-P2A-TRA (SEQ ID NO: 91) (TCR) TCR beta: EVQLVESGGGEVQPGGSLRLSCAASRSSGIDVMGWYRQAPGKERELVAEISGVGDTNYAASLADRFTVSRDNAKNTVYLQMSSLRAEDTAVYYCNAHSFLDLVGAWGQGTLVTVKPLEKTDSGVTQTPKHLITATGQRVTLRCSPRSGDLSVYWYQQSLDQGLQFLIQYYNGEERAKGNILERFSAQQFPDLHSELNLSSLELGDSALYFCASSGGDGDEQFFGPGTRLTVLEDLKNVFPPEVAVFEPSKAEIAHTQKATLVCLATGFYPDHVELSWWVNGKEVHSGVSTDPQPLKEQPALNDSRYCLSSRLRVSATFWQNPRNHFRCQVQFYGLSENDEWTQDRAKPVTQIVSAEAWGRADCGITSASYHQGVLSATILYEILLGKATLYAVLVSALVLMAMVKRKDSRG TCR alpha: AQKITQTQPGMFVQEKEAVTLDCTYDTSDPSYGLFWYKQPSSGEMIFLIYQGSYDQQNATEGRYSLNFQKARKSANLVISASQLGDSAMYFCAMSGGYTGGFKTIFGAGTRLFVKANIQNPDPAVYQLRDSKSSDKSVCLFTDFDSQTNVSQSKDSDVYITDKTVLDMRSMDFKSNSAVAWSNKSDFACANAFNNSIIPEDTFFPSSDVPCDVKLVEKSFETDTNLNFQNLLVIVLRILLLKVAGFNLLMTLRLWSS	> 2 fold	–	–
VHH-TCR with a VHH added to the TRB separated by a mu linker+G4S; CD33.VHH-mLNK.1xG4S-TRB-P2A-TRA (SEQ ID NO: 92) (TCR) TCR beta: EVQLVESGGGEVQPGGSLRLSCAASRSSGIDVMGWYRQAPGKERELVAEISGVGDTNYAASLADRFTVSRDNAKNTVYLQMSSLRAEDTAVYYCNAHSFLDLVGAWGQGTLVTVKPLEKTGGGGSDSGVTQTPKHLITATGQRVTLRCSPRSGDLSVYWYQQSLDQGLQFLIQYYNGEERAKGNILERFSAQQFPDLHSELNLSSLELGDSALYFCASSGGDGDEQFFGPGTRLTVLEDLKNVFPPEVAVFEPSKAEIAHTQKATLVCLATGFYPDHVELSWWVNGKEVHSGVSTDPQPLKEQPALNDSRYCLSSRLRVSATFWQNPRNHFRCQVQFYGLSENDEWTQDRAKPVTQIVSAEAWGRADCGITSASYHQGVLSATILYEILLGKATLYAVLVSALVLMAMVKRKDSRG TCR alpha: AQKITQTQPGMFVQEKEAVTLDCTYDTSDPSYGLFWYKQPSSGEMIFLIYQGSYDQQNATEGRYSLNFQKARKSANLVISASQLGDSAMYFCAMSGGYTGGFKTIFGAGTRLFVKANIQNPDPAVYQLRDSKSSDKSVCLFTDFDSQTNVSQSKDSDVYITDKTVLDMRSMDFKSNSAVAWSNKSDFACANAFNNSIIPEDTFFPSSDVPCDVKLVEKSFETDTNLNFQNLLVIVLRILLLKVAGFNLLMTLRLWSS	> 2 fold	–	–
VHH-TCR with a VHH added to the TRA separated by a mu linker (LEKT)+G4S; TRB-P2A-CD33.VHH-mLNK.1xG4S-TRA (SEQ ID NO: 94) (TCR) TCR beta: DSGVTQTPKHLITATGQRVTLRCSPRSGDLSVYWYQQSLDQGLQFLIQYYNGEERAKGNILERFSAQQFPDLHSELNLSSLELGDSALYFCASSGGDGDEQFFGPGTRLTVLEDLKNVFPPEVAVFEPSKAEIAHTQKATLVCLATGFYPDHVELSWWVNGKEVHSGVSTDPQPLKEQPALNDSRYCLSSRLRVSATFWQNPRNHFRCQVQFYGLSENDEWTQDRAKPVTQIVSAEAWGRADCGITSASYHQGVLSATILYEILLGKATLYAVLVSALVLMAMVKRKDSRG TCR alpha: EVQLVESGGGEVQPGGSLRLSCAASRSSGIDVMGWYRQAPGKERELVAEISGVGDTNYAASLADRFTVSRDNAKNTVYLQMSSLRAEDTAVYYCNAHSFLDLVGAWGQGTLVTVKPLEKTGGGGSAQKITQTQPGMFVQEKEAVTLDCTYDTSDPSYGLFWYKQPSSGEMIFLIYQGSYDQQNATEGRYSLNFQKARKSANLVISASQLGDSAMYFCAMSGGYTGGFKTIFGAGTRLFVKANIQNPDPAVYQLRDSKSSDKSVCLFTDFDSQTNVSQSKDSDVYITDKTVLDMRSMDFKSNSAVAWSNKSDFACANAFNNSIIPEDTFFPSSDVPCDVKLVEKSFETDTNLNFQNLLVIVLRILLLKVAGFNLLMTLRLWSS	> 2 fold	~3 fold	–
VHH-TCR with a VHH added to the TRA separated by a 2xG4S; TRB-P2A-CD33.VHH-2xG4S-TRA (SEQ ID NO: 96) (TCR, also called VHH-TCR with 2G4S; VHH-TCR with two G4Ss) TCR beta: DSGVTQTPKHLITATGQRVTLRCSPRSGDLSVYWYQQSLDQGLQFLIQYYNGEERAKGNILERFSAQQFPDLHSELNLSSLELGDSALYFCASSGGDGDEQFFGPGTRLTVLEDLKNVFPPEVAVFEPSKAEIAHTQKATLVCLATGFYPDHVELSWWVNGKEVHSGVSTDPQPLKEQPALNDSRYCLSSRLRVSATFWQNPRNHFRCQVQFYGLSENDEWTQDRAKPVTQIVSAEAWGRADCGITSASYHQGVLSATILYEILLGKATLYAVLVSALVLMAMVKRKDSRG TCR alpha: EVQLVESGGGEVQPGGSLRLSCAASRSSGIDVMGWYRQAPGKERELVAEISGVGDTNYAASLADRFTVSRDNAKNTVYLQMSSLRAEDTAVYYCNAHSFLDLVGAWGQGTLVTVKPGGGGSGGGGSAQKITQTQPGMFVQEKEAVTLDCTYDTSDPSYGLFWYKQPSSGEMIFLIYQGSYDQQNATEGRYSLNFQKARKSANLVISASQLGDSAMYFCAMSGGYTGGFKTIFGAGTRLFVKANIQNPDPAVYQLRDSKSSDKSVCLFTDFDSQTNVSQSKDSDVYITDKTVLDMRSMDFKSNSAVAWSNKSDFACANAFNNSIIPEDTFFPSSDVPCDVKLVEKSFETDTNLNFQNLLVIVLRILLLKVAGFNLLMTLRLWSS	–	–	binds
VHH-TCR with a VHH added to the TRA separated by a 1xG4S; TRB-P2A-CD33.VHH-1xG4S-TRA (SEQ ID NO: 95) (TCR, also called VHH-TCR with 1G4S; VHH-TCR with one G4S) TCR beta: DSGVTQTPKHLITATGQRVTLRCSPRSGDLSVYWYQQSLDQGLQFLIQYYNGEERAKGNILERFSAQQFPDLHSELNLSSLELGDSALYFCASSGGDGDEQFFGPGTRLTVLEDLKNVFPPEVAVFEPSKAEIAHTQKATLVCLATGFYPDHVELSWWVNGKEVHSGVSTDPQPLKEQPALNDSRYCLSSRLRVSATFWQNPRNHFRCQVQFYGLSENDEWTQDRAKPVTQIVSAEAWGRADCGITSASYHQGVLSATILYEILLGKATLYAVLVSALVLMAMVKRKDSRG TCR alpha: EVQLVESGGGEVQPGGSLRLSCAASRSSGIDVMGWYRQAPGKERELVAEISGVGDTNYAASLADRFTVSRDNAKNTVYLQMSSLRAEDTAVYYCNAHSFLDLVGAWGQGTLVTVKPGGGGSAQKITQTQPGMFVQEKEAVTLDCTYDTSDPSYGLFWYKQPSSGEMIFLIYQGSYDQQNATEGRYSLNFQKARKSANLVISASQLGDSAMYFCAMSGGYTGGFKTIFGAGTRLFVKANIQNPDPAVYQLRDSKSSDKSVCLFTDFDSQTNVSQSKDSDVYITDKTVLDMRSMDFKSNSAVAWSNKSDFACANAFNNSIIPEDTFFPSSDVPCDVKLVEKSFETDTNLNFQNLLVIVLRILLLKVAGFNLLMTLRLWSS	–	–	binds
MAGEA4-reactive, HLA-A2-restricted TCR embedded with tandem VHHs targeting human CD33 and CLL1; TRB-P2A-CLL1-CD33.VHH-mLNK.1xG4S-TRA (SEQ ID NO: 97) (TCR, also called CD33-CLL1-TCR; CD33-CLL1 TCR) TCR beta: DSGVTQTPKHLITATGQRVTLRCSPRSGDLSVYWYQQSLDQGLQFLIQYYNGEERAKGNILERFSAQQFPDLHSELNLSSLELGDSALYFCASSGGDGDEQFFGPGTRLTVLEDLKNVFPPEVAVFEPSKAEIAHTQKATLVCLATGFYPDHVELSWWVNGKEVHSGVSTDPQPLKEQPALNDSRYCLSSRLRVSATFWQNPRNHFRCQVQFYGLSENDEWTQDRAKPVTQIVSAEAWGRADCGITSASYHQGVLSATILYEILLGKATLYAVLVSALVLMAMVKRKDSRG TCR alpha: EVQLVESGGGEVQPGGSLRLSCAASGFLFSIYDMNWYRQAPGKEREWVAGITNNGYSTAYAESVKGRFTISRDNAKNTIYLQMSSLRAEDTAVYYCHADLTKAYDVEYAWGQGTLVTVKPGGGGSGGGGSEVQLVESGGGEVQPGGSLRLSCAASRSSGIDVMGWYRQAPGKERELVAEISGVGDTNYAASLADRFTVSRDNAKNTVYLQMSSLRAEDTAVYYCNAHSFLDLVGAWGQGTLVTVKPLEKTGGGGSAQKITQTQPGMFVQEKEAVTLDCTYDTSDPSYGLFWYKQPSSGEMIFLIYQGSYDQQNATEGRYSLNFQKARKSANLVISASQLGDSAMYFCAMSGGYTGGFKTIFGAGTRLFVKANIQNPDPAVYQLRDSKSSDKSVCLFTDFDSQTNVSQSKDSDVYITDKTVLDMRSMDFKSNSAVAWSNKSDFACANAFNNSIIPEDTFFPSSDVPCDVKLVEKSFETDTNLNFQNLLVIVLRILLLKVAGFNLLMTLRLWSS	–	–	binds
engineered dual-targeting TCR (VHH-TCR): MAGEA4-reactive, HLA-A2-restricted TCR embedded with a VHH targeting human CD33; TRB-P2A-CD33.VHH-mLNK-TRA (SEQ ID NO: … (TCR) TCR beta: DSGVTQTPKHLITATGQRVTLRCSPRSGDLSVYWYQQSLDQGLQFLIQYYNGEERAKGNILERFSAQQFPDLHSELNLSSLELGDSALYFCASSGGDGDEQFFGPGTRLTVLEDLKNVFPPEVAVFEPSKAEIAHTQKATLVCLATGFYPDHVELSWWVNGKEVHSGVSTDPQPLKEQPALNDSRYCLSSRLRVSATFWQNPRNHFRCQVQFYGLSENDEWTQDRAKPVTQIVSAEAWGRADCGITSASYHQGVLSATILYEILLGKATLYAVLVSALVLMAMVKRKDSRG TCR alpha: EVQLVESGGGEVQPGGSLRLSCAASRSSGIDVMGWYRQAPGKERELVAEISGVGDTNYAASLADRFTVSRDNAKNTVYLQMSSLRAEDTAVYYCNAHSFLDLVGAWGQGTLVTVKPLEKTAQKITQTQPGMFVQEKEAVTLDCTYDTSDPSYGLFWYKQPSSGEMIFLIYQGSYDQQNATEGRYSLNFQKARKSANLVISASQLGDSAMYFCAMSGGYTGGFKTIFGAGTRLFVKANIQNPDPAVYQLRDSKSSDKSVCLFTDFDSQTNVSQSKDSDVYITDKTVLDMRSMDFKSNSAVAWSNKSDFACANAFNNSIIPEDTFFPSSDVPCDVKLVEKSFETDTNLNFQNLLVIVLRILLLKVAGFNLLMTLRLWSS	–	~3 fold	–
